Data on 30 sequences can be found in the nanobody polyreactivity screen of Harvey et al. (2022).

This data set is described as follows: yeast display, Sf9 membrane polyspecificity reagent, FACS + sequencing; frameworks hold sequencing errors. Put shortly: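 Using colony PCR, genes from sorted yeast display clones were amplified, then sequenced on MiSeq at 2 × 250 and filtered by CDR length. The clones had been stained with 10% biotinylated, detergent-solubilized Sf9 membrane reagent for 1 hour at 4 °C and sorted by FACS into low and high (top ~1%) gates on anti-HA and streptavidin fluorescence. Polyreactivity labels come from the gate of origin.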
As for “QVQLVESGGGLVQAGGSLRLSCAASGRILGDYAMGWYRQAPGTEREFVAAIDYNGGSTNYADSVMGRFTISRDNAKNTVYFQMNSLKPEDTAVYYCAKTDGFYRGYGYWGQGTQVTVSS”, the “polyreactivity (PSR sort gate)” value is “low polyreactivity”.

In the case of “QVQLVESGGGLVQAGGSLRLSCAASGRILGKYAMGWYRQAPGKERELVAAIRLRGGSTYYADSVKGRFTISRDNAKNTVYLQMNSLKPEDTAVYYCAARYWDRSQAYTYWGQGTQVTVSS”, the “polyreactivity (PSR sort gate)” value was “high polyreactivity”.

Turning to “QVQLVESGGGLVQAGGSLRLSCAASGRILGNNVMGWYRQAPGKERELVDAITSSGGRTYYADSVKGRFTISRDNAKNTVYLQMNSLKPEDTAVYYCAAERRYYGKFNYWGQGTQVTVSS”, the “polyreactivity (PSR sort gate)” value is reported as “high polyreactivity”.

Consider “QVQLVESGGGLVQAGGSLRLSCAASGRILGQYAMGWYRQAPGKERELVAAISFRGGRTYYADSVKGRFTISRDNAKNTVYLQMNSLKPEDTAVYYCATDGWRSPYYRNYRYFYTEYYYWGQGTQVTVSS”, for which the “polyreactivity (PSR sort gate)” value was “high polyreactivity”.

Regarding “QVQLVESGGGLVQAGGSLRLSCAASGRILGQYVMGWYRQAPGKERELVASIRSGGVSTYYADSVKGRFTISRDNAKNTVYLQMNSLKPEDTAVYYCATGSPGPRRYKFDYWGQGTQVTVSS”, the “polyreactivity (PSR sort gate)” value was “low polyreactivity”.

For the sequence “QVQLVESGGGLVQAGGSLRLSCAASGRILGRYAMGWYRQAPGKERELVAAISGSGTSTYYADSVKGRFTISRDNAKNTVYLQMNSLKPEDTAVYYCAAKWITRRGGDFDYWGQGTQVTVSS”, the “polyreactivity (PSR sort gate)” value is listed as “high polyreactivity”.

In the case of “QVQLVESGGGLVQAGGSLRLSCAASGRILGVNAMGGYRQAPGKERELVAAINFSGGGTYYADSVKGRFTISRDNAKNTVYLQMNSLKPEDTAVYYCAAGYVTTWFRYDYWGWGQGTQVTVSS”, the “polyreactivity (PSR sort gate)” value was “low polyreactivity”.

In the case of “QVQLVESGGGLVQAGGSLRLSCAASGRILGYNARGWYRQAPGKEREFVATISKRTGSTRYADSVKGRFTISRDNAKNTVYLQMNSLKPEDTAVYYCAAYYGRFYGKYDYWGQGTQVTVSS”, the “polyreactivity (PSR sort gate)” value is reported as “high polyreactivity”.

On to “QVQLVESGGGLVQAGGSLRLSCAASGRILHHYAMGWYIQAHGKERELVAAIRWGGGSTYYADSVKGRFTISRDNAKNTVYLQMNSLKPEDTAVYYCAAEVVAGYDYSQYYYWGQCTQVTVSS”, for which the “polyreactivity (PSR sort gate)” value was “low polyreactivity”.

Regarding “QVQLVESGGGLVQAGGSLRLSCAASGRILILNAMGWYRQAPGKERELVAAITNGGSTNYADSVKGRFTISRDNAKNSVYLQMNSLKPEDTAVYYCAARLYSYDYYTVLKLFDYWGQGTQVTVSS”, the “polyreactivity (PSR sort gate)” value is “low polyreactivity”.

As to “QVQLVESGGGLVQAGGSLRLSCAASGRILIPYAMGWYRQAPGKEREFVAGITGSGGRTYYADSVKGRFTISRDNAKNTVYLQMNSLKPEDTAVYYCAADYYYSPTMYYWGQGTQVTVSS”, the “polyreactivity (PSR sort gate)” value was “low polyreactivity”.

For “QVQLVESGGGLVQAGGSLRLSCAASGRILIRKAMGRSRQAPGKERELVAAINRGGGSTYYADSVKGRFTISRDNAKNTVYLQMNSLKPEDTAVYYCAADRKAGYSRVDGDYWGQGTQVTVSS”, the “polyreactivity (PSR sort gate)” value is “low polyreactivity”.

As to “QVQLVESGGGLVQAGGSLRLSCAASGRILKRYAMGWYRQAPGKERELVAAINWSGGSTYYADSVKGRFTISRDNAKNTVYLQMTSLKPEDTAVYYCAADSWPFGYYYWGQGTQVTVSS”, the “polyreactivity (PSR sort gate)” value is listed as “high polyreactivity”.

With “QVQLVESGGGLVQAGGSLRLSCAASGRILKVYAMGGYRQAPGQERELVAAISVNGGRTYYADSVKGRFTISRDNAKNTVYLQMNSLKPEDTAVYYCAIRLYKPGNVFYSVDQSDYWGQGTQVTVSS”, the “polyreactivity (PSR sort gate)” value is recorded as “low polyreactivity”.

As for “QVQLVESGGGLVQAGGSLRLSCAASGRILLRNVMGLYRPAPGKERELVAVITRTGITYYADSVKGRFTISRDNAKNTVYLQMISLNPEDTAVYYCAAGLPTYEHDYWGQGTQVTVSS”, the “polyreactivity (PSR sort gate)” value was “low polyreactivity”.

In the case of “QVQLVESGGGLVQAGGSLRLSCAASGRILLSYAMGWYRQAPGKERELVAAISRSGVSTYYADSVKGRFTISRDNAKNTVYLQMNSLKPEDTAVYYCAAVRSSPGKSWDYNYWGQGTQVTVSS”, the “polyreactivity (PSR sort gate)” value was “high polyreactivity”.

“QVQLVESGGGLVQAGGSLRLSCAASGRILPFNAMGWYRQAPGKERELVAAIRWRGSSTYYADSVKGRFTISRDIAKNTVYLQMNSLKPEDTAVYYCAAPSSVRGKVISADYGYWGQGTQVTVSS”: the “polyreactivity (PSR sort gate)” value is “high polyreactivity”.

For the sequence “QVQLVESGGGLVQAGGSLRLSCAASGRILPFNAMGWYRQAPGKERELVATITRRGGSTFYADSVKGRFTMSRDNAKNTVYLQMNSLKPEDTAVYYCAKTYWYVGSSRTYNYWGQGTQVTVSS”, the “polyreactivity (PSR sort gate)” value was “high polyreactivity”.

For “QVQLVESGGGLVQAGGSLRLSCAASGRILPSNAMGWYRPAPGKERELVAGITSGGSTDYADSVKGRFTISRDNAKNTVYLQMNSLKPEDTAVYYCNKPFPYYPDGPNGYDYWGQGTQVTVSS”, the “polyreactivity (PSR sort gate)” value is “low polyreactivity”.

With “QVQLVESGGGLVQAGGSLRLSCAASGRILQFYAMGWYRQAPGKERELVATIRVGGGSTYYADSVKGRFTISRDNAKNTVYLQMYSLKPEDTAVYYCAVRQLYSYPGDRRGYYWGQGTQVTVSS”, the “polyreactivity (PSR sort gate)” value is “low polyreactivity”.

As to “QVQLVESGGGLVQAGGSLRLSCAASGRILQGYAMGWYRQAPGKERELVASIRTGGTTNYADSVKGRFTISRDNAKNTVYLQMNSLKPEDTAVYYCNLGYYSYYGRYYYWGQGTQVTVSS”, the “polyreactivity (PSR sort gate)” value is listed as “high polyreactivity”.

For the sequence “QVQLVESGGGLVQAGGSLRLSCAASGRILQPNAMGWYRQAPGKERELVAGISRSGGGTYYADSVKWRFTISRDNAKNTVYLQMNTLKPEDTAVYYCAAYRYGYGYGYWGQGTQLTVSS”, the “polyreactivity (PSR sort gate)” value is given as “high polyreactivity”.

Take “QVQLVESGGGLVQAGGSLRLSCAASGRILRSYAMGWYRPAPGKERELVAAIRWRGGSTYYADSVKGRFTISRDNAKNTVYLQMNSLKPEDTAVYYCAARSYYRQSAGDYWGQGTQVTVSS”: the “polyreactivity (PSR sort gate)” value is listed as “high polyreactivity”.

For the sequence “QVQLVESGGGLVQAGGSLRLSCAASGRILRTYAMGWYRPAPGKERELVAAISRSGGSTYYADSVKGRFTISRDNAKNTVYLQMNSLKPEDTAVYYCNKAYGGRGYKYEYWGQGTQVTVSS”, the “polyreactivity (PSR sort gate)” value is given as “high polyreactivity”.

For the sequence “QVQLVESGGGLVQAGGSLRLSCAASGRILSGNAMGWYRQAPGKERELVAAITNAGITKYADSVKGRFTISRDNAKNTVYLQMNSLKPEDTAVYYCATDRYAYKLYDYWGQGTQVTVSS”, the “polyreactivity (PSR sort gate)” value is recorded as “low polyreactivity”.

With “QVQLVESGGGLVQAGGSLRLSCAASGRILSKNAMGWYRQAPGKERELVAAIRGSTGITYYADSVKGRFTISRDNAKNTVYLQMNSLKPEDTAVYYCAAVVQGGFYWGQGTQVTVSS”, the “polyreactivity (PSR sort gate)” value is reported as “high polyreactivity”.

“QVQLVESGGGLVQAGGSLRLSCAASGRILSYYAMGWYRQAPGKERELVAVIRRGASTYADSVKGRFTISRDNAKNTVYLQMNSLKPEDTAVYYCNADRVVGLSATKYGYWGQGTQVTVSS”: the “polyreactivity (PSR sort gate)” value is reported as “low polyreactivity”.

On to “QVQLVESGGGLVQAGGSLRLSCAASGRILTFNAMGGYRQAPVKERELVASISNGGSTIYADSVKGRFSISRDNAKNTVYLQMNSLKPEDTAVYYCAALNASQGTVTFYIFDYWGQGTQVTVSS”, for which the “polyreactivity (PSR sort gate)” value is “low polyreactivity”.

For the sequence “QVQLVESGGGLVQAGGSLRLSCAASGRILTGYAMGWYRQAPGKARELVAAISNDTDSTHYADSVKGRFTISRDNAKNTVYLQMNSLKPEDTAVYYCATDAPLQKRWRRFDYWGQGTQVTVSS”, the “polyreactivity (PSR sort gate)” value is “low polyreactivity”.

For “QVQLVESGGGLVQAGGSLRLSCAASGRILTGYAMGWYRQAPGKERELVAAISNDTDSTHYADSVKGRFTISRDNAKNTVYLQMNSLKPEDTAVYYCATDAPLQKRWRRFDYWGQGTQVTVSS”, the “polyreactivity (PSR sort gate)” value is on record as “low polyreactivity”.
